Where “and” joins values, the source holds several entries; their conditions need not be identical. Equal values may be shown once.
Biological target: Lake Sinai virus 2 capsid protein, full-length (residues 1–520) (Lake Sinai virus 2)
Test: cryo-EM structure; purified LSV2 VLPs (30 mg/mL) assembled in vitro in 50 mM HEPES, 300 mM NaCl at pH 6.5, 7.5 or 8.5; T = 4 and T = 3 particles from single datasets, icosahedral and focused refinement

Lake Sinai virus 2 capsid protein, full-length (residues 1–520) (natural protein)
stoichiometry N: 240 copies and 180 copies
